Assay results taken from paper PMC10652518, “Enzyme kinetics of deoxyuridine triphosphatase from Western corn rootworm” (BMC Research Notes, 2023).

B1: Western corn rootworm (Diabrotica virgifera virgifera) deoxyuridine 5'-triphosphate nucleotidohydrolase (dUTPase), construct from residue 25 with Arg89Lys, … (enzyme, UniProt A0A6P7FUX9 25-168, looked up)
chain: GANILLKYTKVIEEAYPPTKGSVKAAGYDLKSAHDVVVPARGKALVDTGLKIELPEGCYGRIAPKSGLAVKNFIDVGAGVVDEDYRGLLKVVLFNHSDNDFEVKSGDRIAQLICERIFYPELEEVKELTDTARGEGGFGSTGTQ
notes: dUTPase of Diabrotica virgifera virgifera LeConte (protein XP_028136545; UniProt ID A0A6P7FUX9_DIAVI); the construct starts at the 25th residue of the WCR dUTPase; Arg89 changed to Lys to prevent secondary thrombin cleavage; Cloned into pET-15 by NcoI and XhoI; also called WCR dUTPase; product of WCR DUT; source: E. coli, purified (Ni-NTA, HiTrap Q; His-tag removed with human alpha-thrombin, …)

Assays:
[1] = test system: T1, O=c1ccn([C@H]2C[C@H](O)[C@@H](COP(=O)(O)OP(=O)(O)OP(=O)(O)O)O2)c(=O)[nH]1; assay: cresol red proton-release assay, stopped-flow spectrophotometer, integrated Michaelis-Menten fit; format: biochemical, Diabrotica virgifera; settings: 50 nM enzyme, 1 mM dUTP; activity prevented by EDTA
T1 construct: starts at residue 25; R89K to prevent secondary thrombin cleavage; N-terminal 6-His tag cut by thrombin; codon-optimized synthetic gene in pET-15, E. coli; trimer (48 kDa by SEC)
From the text: cresol red proton-release assay, stopped-flow spectrophotometer, integrated Michaelis-Menten fit on WCR dUTPase

[2] = biological target: the molecule itself; assay: SEC; Superdex matrix, molecular weight calibrated with the BioRad SEC standard; tag-free dUTPase, estimated 48 kDa against 15.6 kDa on SDS-PAGE

Row | Molecule | Km [1] [µM] | kcat [1] [s⁻¹] | kcat/Km [1] [M⁻¹ s⁻¹] | stoichiometry N [2]
1 | WCR dUTPase (Diabrotica virgifera virgifera; R89K) | 0.7 ± 0.1 | 30 ± 0.5 | 4e+07 | –
2 | B1 | – | – | – | 3
